{
  "source": "the DeepSol protein solubility set",
  "data": [
    {"experiment": "soluble on expression in E. coli; label from the status in PepcDB or PDB records", "values": [
      {"sequence": "MGSDKIHHHHHHMKILFISSLYAPDIGGGAEIILQRTVEGLQQRGYSIAVLATTDRPGLQLAEVNRVKVYRAGLLNQYWHFMPQRPERLARFAWHWRDRYNGGMRDYVRQVIELEQPELVVCHNLTGWSVSAWDEITRANRPVVQVLHDLYLLCPSSTMFKKGQSCQRQCSLCTQFRKHHAQQSEQVSTVVGVSRFMLDTLQAQGYFKGARGYVVHNASPFTPPHAGQTKAADDTAPLRFGYLGTLSENKGVGWLINQFQHLPFKATLQIAGRGQSNDEKRFRAMATSPDISFVGFQKPEDFYQHIDVAIVPSMWNEPFGLVAVEACAHSRPVIASRMGGLPEIIQDQLNGLLCSPDDPDSLGLAMLKLHQQPELLARLGSQARNSVASLLNLDLMLDQYESIFAQTLQDRSTWHGERVQLDPG", "soluble on expression in E. coli": "not soluble"},
      {"sequence": "MKFVDEASILVVAGDGGNGCVSFRREKYIPKGGPDGGDGGDGGDVWMEADENLNTLIDYRFEKSFRAERGQNGASRDCTGKRGKDVTIKVPVGTRVIDQGTGETMGDMTKHGQRLLVAKGGWHGLGNTRFKSSVNRTPRQKTNGTPGDKRELLLELMLLADVGMLGMPNAGKSTFIRAVSAAKPKVADYPFTTLVPSLGVVRMDNEKSFVVADIPGLIEGAAEGAGLGIRFLKHLERCRVLLHLIDIDPIDGTDPVENARIIISELEKYSQDLATKPRWLVFNKIDLLDKVEAEEKAKAIAEALGWEDKYYLISAASGLGVKDLCWDVMTFIIENPVVQAEEAKQPEKVEFMWDDYHRQQLEEIAEEDDEDWDDDWDEDDEEGVEFIYKR", "soluble on expression in E. coli": "soluble"},
      {"sequence": "MGSDKIHHHHHHMTSREQIIELIKSGEFTQAELARQMGVNSGALSSYLGGKYKGNVENIENVLASWLSTRDKKEKVFVEAPHFIEIPTADKVFKALDMARFCKTIVPIFGASGVGKTKACQEYKKRYQNVWMITISPSRASLNAFLYELALELGIKDAPRRKDRLSRLILDNLKDTEGLVIVDESDHLTYDSIEELRYLQEKAEVGFALIGNNKVYTKMQGGANQAHEYARLWNRIGKKCQIKASKKGDIKAVAQAWGLDVQDKDLMTVLYDIGGKAGGLRALTQYLRLAGMTAKGQGTGITLDLILTAQAEMTGSE", "soluble on expression in E. coli": "not soluble"},
      {"sequence": "MGSDKIHHHHHHMSPHDAKSVIRRFVKEVLNDKNLAVIDEICPPDYVELDPLPGQGPGAAGLKAFLGESFFKAFPDLVWVNEEMVAEGEYVMARSTWTGTHRGEFLGIPPTHRAVKVAAWTIDHVVDGKFVDSRILVDALSLLQQLGALPAWPPPPKTFQAMVDAAYRSVPTIKAADLHRRLKREPDLLIIDVRDAAEVAQTGAIPGAINLSYGTLTYAADHTAPEDWRDPRLADHARPIVTTCGLGPLGALGGGLLHEMGFTNVQILEGGVQAWIDAGLPVVKPGDQ", "soluble on expression in E. coli": "not soluble"},
      {"sequence": "GELPEKSKLQEIYQELTRLKAAVGELPEKSKLQEIYQELTRLKAAVGELPEKSKLQEIYQELTRLKAAVGELPEKSKLQEIYQELTRLKAAVGELPEKSKLQEIYQELTELKAAVGELPEKSKLQEIYQELTQLKAAVGELPDQSKQQQIYQELTDLKTAFERLGHH", "soluble on expression in E. coli": "soluble"},
      {"sequence": "MLLEEVRAGDRLSGAAARGDVQEVRRLLHRELVHPDALNRFGKTALQVMMFGSTAIALELLKQGASPNVQDTSGTSPVHDAARTGFLDTLKVLVEHGADVNVPDGTGALPIHLAVQEGHTAVVSFLAAESDLHRRDARGLTPLELALQRGAQDLVDILQGHMVAPL", "soluble on expression in E. coli": "soluble"},
      {"sequence": "MSYNNLLAIEKPVRYTGDEIGSRPKEDAELRFVLAFPDVYEVGMSHLGLQILYDILNREEGIAAERAYTPWPDREAQLRSLGESLATLESQTSLARADIIGFTLQYELSYTNILTMLDLAGIPFRAAERGDEFPLVIAGGPCACNPEPLADFLDAVLLGDGEEAVVEIAAACLERKRNGESKQWLLERLASIDGVYVPSFFEPRYHDDGTIDAIIPLRPAHGRVRRRFLSDLDTAPYPTAPVVPFLKTIHDRVSIEIGRGCTRGCRFCQAGYLYRPVRERSPETILKLVEETLRNTGYDEVSLLSLSTGDYGCLTPLLRELMVRYAHERIAVALPSLRVGSLSQELVEEIRKVRKTGFTLAPEAGSERLRTIINKGISEEDLLRNAFEAFSNGWRVIKLYFMIGLPGETEEDLVGIADLARKVKQEGKRAGSGGEVNVSVSTFVPKPHTPFQWEPQITTEETVAKQRFLRDELKKRKLGLKWHDAPLSFMEGVFARGDRRLGAVLAKAWELGCRFDGWGDRLKSTTWHEAFAVCGIDPAFYHRRRGIDETLPWDHLDFGVTRAFLRQELEKAWAGEPTGDCRTGRCTGCGICDFDRIAMRTTDPAWQKGLEHHHHHH", "soluble on expression in E. coli": "not soluble"},
      {"sequence": "MAHHHHHHMLRHLPPPRAHPSPAFCHTHARMHLLQAPPSPHPHPTRTPLQTLCVILPPAMQVELSFIFPHALKELPVSFFVPLSSQRPRTVANLFFMCSGQLPLPAELLSALHLTEAEVAYATPAAAKAAGLLPLSDSAVVRIDKASVMEIGSSTTKSIFGGFISDERVTLPAGTAARGQSIAATMSSLKAGTLLYGNLGMPNTQASRYYILLEPVTTPEQRHEFAGFAPLGMVTGGLAELKRAASQTAVQPRTLVPKKKVVVSGCRMQLDYTYLSSSTEASASVSLGGLCDGTGQDAGKQRPTEPHERVAGRVRRRDDDGDEAKQADPRRALDGDGNTTDPGAAPLHSSGFFKISARFPKAAVAASGAGPSLKRRRAEAFVVGDDGVPTLRTTAIAPGEQVGGDGTAEPFEFFKAQQDAFMNDIEGIKDAQLQRFNRKARRIMKSRRAWASSSSSGRHANSQQHSSSSGTHVTGSGALSKTGAKKTKPKRY", "soluble on expression in E. coli": "not soluble"},
      {"sequence": "SDRFVWTSGLLEINETLVIQQRGVRIYDGEEKIKFDAGTLLLSTHRLIWRDQKNHECCMAILLSQIVFIEEQAAGIGKSAKIVVHLHPAPPNKEPGPFQSSKNSYIKLSFKEHGQIEFYRRLSEEMTQRRWENMPVSQSLQTNRGPQPGRIRAVGIVGIERKLEEKRKETDKNISEAFEDLSKLMIKAKEMVELSKSIANKIKDKQGDITEDETIRFKSYLLSMGIANPVTRETYGSGTQYHMQLAKQLAGILQVPLEERGGIMSLTEVYCLVNRARGMELLSPEDLVNACKMLEALKLPLRLRVFDSGVMVIELQSHKEEEMVASALETVSEKGSLTSEEFAKLVGMSVLLAKERLLLAEKMGHLCRDDSVEGLRFYPNLFMTQS", "soluble on expression in E. coli": "soluble"},
      {"sequence": "DATWLPPSRWDDGIPGLMLDYNLNGTVSRNYQGGDSHQFSYNGTVGGNLGPWRLRADYQGSQEQSRYNGEKTTNRNFTWSRFYLFRAIPRWRANLTLGENNINSDIFRSWSYTGASLESDDRMLPPRLRGYAPQITGIAETNARVVVSQQGRVLYDSMVPAGPFSIQDLDSSVRGRLDVEVIEQNGRKKTFQVDTASVPYLTRPGQVRYKLVSGRSRGYGHETEGPVFATGEASWGLSNQWSLYGGAVLAGDYNALAAGAGWDLGVPGTLSADITQSVARIEGERTFQGKSWRLSYSKRFDNADADITFAGYRFSERNYMTMEQYLNARYRNDYSSREKEMYTVTLNKNVADWNTSFNLQYSRQTYWDIRKTDYYTVSVNRYFNVFGLQGVAVGLSASRSKYLGRDNDSAYLRISVPLGTGTASYSGSMSNDRYVNMAGYTDTFNDGLDSYSLNAGLNSGGGLTSQRQINAYYSHRSPLANLSANIASLQKGYTSFGVSASGGATITGKGALVPR", "soluble on expression in E. coli": "soluble"},
      {"sequence": "MSLSSERLIYLPLGGAGEIGMNAYVYGYGKPGKERLIVVDLGVAFPDMDTSPGVDLIIPDIAWLEERRDQIEAIFITHAHEDHIGAVAHTYDRLRAPIYTRKFTANIAKRKMDEYGHPDDAVTTVAPWPQQTTVGPFKVGFLPMSHSIPESSSLVIDVAGDRLIHSGDFKIDMTPGVGEPYDPELWADVSKDGVKALICDSTNVFSQHAGRSEATVGPEIEKLLGTAQGMVVATTFASNVARVKTLADAGERAGRSVVLLGRAMKRMVEASLETGVMKDFPPVVSPEEARGIPRENLMLLVTGSQGERRAASAQLARGKYMGLEMKEGDMFLFSSKTIPGNERGVIKVINAFSEMGVDIVDDSSGLYHVSGHANRPDLETLHDVVKPQILIPMHGEHRHLREHTKIANAKGMKGVLAVNGMMIDLSGNEPKVVEYVDSGRTYLDGSTQIGAMDGVVRDRIRMALNGHVTVTVILDENDEALGDPWVDAMGLPEQGRSKTSLVDVLEADLAQFLGRANAKTLRDDDKLHDGLKRTVRQSANDEIGKKPEVTIVVSRLSEGHHHHHH", "soluble on expression in E. coli": "soluble"},
      {"sequence": "MAHHHHHHMGTLEAQTQGPGSMSSSIEIFPDSDILVAAAGKRLVGAIGAAVAARGQALIVLTGGGNGIALLRYLSAQAQQIEWSKVHLFWGDERYVPEDDDERNLKQARRALLNHVDIPSNQVHPMAASDGDFGGDLDAAALAYEQVLAASAAPGDPAPNFDVHLLGMGPEGHINSLFPHSPAVLESTRMVVAVDDSPKPPPRRITLTLPAIQRSREVWLLVSGPGKADAVAAAIGGADPVSVPAAGAVGRQNTLWLLDRDAAAKLPS", "soluble on expression in E. coli": "soluble"},
      {"sequence": "MAHHHHHHMEHQYFFIEATWLEAAAAGICSRNGIILKDAIAKAEKGIPVQIKNDSAPTMRSLIQTTHASLEQACERYLHQNARNLRLTRASKPTPAVEALNEAERASCRELVVRIAITGALTQYQRCTRKCILQDSSSLSPSLSHPAVSASKTVQGNGVTDKQLERSFQTTLLKGLLYAFESFQECHSMNRDHYPPRVDSNTPGTVGWDTLVLLYLVHRIPQVARHASGSAIDDCIGQVIRTWRKLLVALQSVDAQEAPEHSRRRGALSLVNGLLIILFQRYNTHQCAVLLGAVEHAETVAESSKEPARSILHPSRHMVSEVVTYHYYQGRMRLYERKLDEAHRILRIAYTLLPPAGFGNEPQRLNKERVRFFLSVAGVANGRRIPDEILRADEDLLPRLFGSLTAAIERGDPVCFSAALDSHASTFHRRGVYLILQQAKILCYLMVVARVHAAMAALSDVDNSRITIPTLLAAYTYITSEKPQSGKSSAESKKRSRDDEAVSPVSEARMAESVMDEDRMALWIAKLIARGYVRGYYSHEHKTLVLSKKVPFPLLQEEV", "soluble on expression in E. coli": "not soluble"},
      {"sequence": "MDQQSTRTDITVNVDGFWMLQALLDIRHVAPELRCRPYVSTDSNDWLNEHPGMAVMREQGIVVNDAVNEQVAARMKVLAAPDLEVVALLSRGKLLYGVIDDENQPPGSRDIPDNEFRVVLARRGQHWVSAVRVGNDITVDDVTVSDSASIAALVMDGLESIHHADPAAINAVNVPMEEMLEATKSWQESGFNVFSGGDLRRMGISAATVAALGQALSDPAAEVAVYARQYRDDAKGPSASVLSLKDGSGGRIALYQQARTAGSGEAWLAICPATPQLVQVGVKTVLDTLPYGEWKTHSRV", "soluble on expression in E. coli": "soluble"},
      {"sequence": "MAEVERQDKYLRQRNKYRFHIIPDGNCLYRAVSKTVYGDQSLHRELREQTVHYIADHLDHFSPLIEGDVGEFIIAAAQDGAWAGYPELLAMGQMLNVNIHLTTGGRLESPTVSTMIHYLGPEDSLRPSIWLSWLSNGHYDAVFDHSYPNPEYDNWCKQTQIQKKRDEELAKSMAISLSKMYIEQNACS", "soluble on expression in E. coli": "soluble"},
      {"sequence": "GGIYGIGLDITELKRIASMAGRQKRFAERILTRSELDQYYELSEKRKNEFLAGRFAAKEAFSKAFGTGIGRQLSFQDIEIRKDQNGKPYIICTKLSPAAVHVSITHTKEYAAAQVVIERLSS", "soluble on expression in E. coli": "soluble"},
      {"sequence": "MAFDISAQDPFSILIAGVDSREDTHAGRSDTLIVLTVNPKEESIKMLSIPRDTRTEIVGRGTDDKINHAYAFGGAQMTIDTVENFLDIPIDHYVSINMDGFTQLVDALGGVSVENSFAFSQNGYQFEEGEIFLETGDEALAYARMRKQDSRGDFGRNDRQRQIVEAVIKQSAQFSSITKAGAILDAVGESVRTDLQLDGMWELQSNYRGAAKNIEQLEITGEGTRINNIYYLIIPQEEIARVQGELKSHLELSLEHHHHHH", "soluble on expression in E. coli": "soluble"},
      {"sequence": "MFSSIGWPEIFTVLILGLIIIGPERLPKVIEDVRAAIYAAKKAINNAKEELNGNLGAEFDEFREPINKIASIQRMGPKAVLTKALFDEDENFMDNFDPKKIMASGTEGEAYRERGINPQPAGDSASPQTPSNKESQPKAGFSWDDIT", "soluble on expression in E. coli": "not soluble"},
      {"sequence": "IDFRTNKSKDAVIVVELASPAAIVDVKRVQEGLSIDLMNTSVKDEQLYLLDVKDFATVVESVEVFRDTSTTRLVAYIDEEYTHDYRLTGRYLEITVSKLKPNEKV", "soluble on expression in E. coli": "not soluble"}
    ]}
  ]
}
